Measured values reported in patent US20150111822A1 (OTTAWA HOSPITAL RESEARCH INSTITUTE, published 2015).

Target: T1, endogenous Fzd7 on activated mouse satellite cells (mouse, UniProt Q61090 33-572)
T1 construct: whole, on cells; also called Frizzled7; Wnt7a receptor Fzd7
Assay: in-situ proximity ligation assay (PLA) on activated satellite cells on cultured myofibers; signal abolished by siSdc4
Description: A) Co-IP of Sdc4 with the Wnt7a receptor Fzd7 from satellite cell derived primary myoblasts overexpressing (OE) Fzd7-Flag and Sdc4-YFP. Co-IP was performed with an anti-YFP antibody or with an IgG control. B) Proximity ligation assay (PLA) of Sdc4 and Fzd7 in activated satellite cells after 42 hours of fiber culture. […] Scale bar=5 μm. C) Proximity ligation assay (PLA) of Sdc4 and FN in activated satellite cells after 42 hours of fiber culture. […] Scale bar=5 μm. D) Co-IP of Fzd7 with FN from satellite cell derived primary myoblasts overexpressing (OE) Fzd7-Flag and FN. Co-IP was performed with an anti-YFP antibody. siRNA knockdown of endogenous Sdc4 (siSdc4) prevented Co-IP of FN with Fzd7 when compared to siSCR. E) Co-IP of Sdc4 with Wnt7a from satellite cell derived primary myoblasts that overexpress (OE) Sdc4-YFP and Wnt7a-HA. Co-IP was performed with an anti-flag antibody. siRNA knockdown of endogenous Fzd7 prevented Co-IP of Sdc4 with Wnt7a. F) Rac1 activation assay. Total Rac1 is shown as a loading control. Densitometric quantification represents average grey values±SEM after subtraction of the background and normalization to total Rac1. The average grey value obtained for empty vector (EV) was set to 100%, n=3, p values are ***p<0.001, **p<0.01, *p<0.05.
Mouse Fzd7 immunoprecipitated with mouse Sdc4 in mammalian myogenic cells. […]

B1: endogenous Syndecan 4 (Sdc4) on mouse satellite cells and primary myoblasts (receptor, UniProt O35988 24-198, looked up)
chain: ESIRETEVIDPQDLLEGRYFSGALPDDEDAGGSDDFELSGSGDLDDTEEPRPFPEVIEPLVPLDNHIPENAQPGIRVPSEPKELEENEVIPKRAPSDVGDDMSNKVSMSSTAQGSNIFERTEVLAALIVGGVVGILFAVFLILLLVYRMKKKDEGSYDLGKKPIYKKAPTNEFYA
notes: whole, on cells; also called FN receptor Sdc4
binding result: binds
